The test system of this test is cultured PBMCs of the allergic donors. The test is described as follows: ELISPOT of IL-5 or IFNg production by cultured PBMCs of TG allergic donors in response to peptide. The test is classed as cell-based, human. Conditions: for NTGA's containing at least one T cell epitope, Th+ (Col 2): NTGA number given = criterion met, TG allergic donors n=20; for No of PG+ & th+ peptides per NTGA / No of PP & Th+ peptides per NTGA: Table 6; for No of PG+ & th+ peptides per NTGA: PG+ peptides recognized by T cells of grass allergic donors (n=20); for No of PP & Th+ peptides per NTGA: PP peptides recognized by T cells of grass allergic donors (n=20); for # Th+: Table 7, peptides per NTGA recognized by T cells of grass allergic donors (n=20). From the text:
Table 1 indicates for each of the 397 PG+ peptides in which non-grass pollen species a matching peptide with either less than 3, less than 2 or zero mismatches are found. The number of TG grass allergic donors (n=20) with an in vitro T cell response to the TG peptide sequence is also shown.
A set of 93 proteins from Timothy grass (TG) pollen and the assembly of 822 peptides (15 mers) predicted to promiscuously bind HLA class II molecules shown in Table 9 and the immune reactivity in allergic donors have been reported in PCT application WO 2013/119863. […] Immune reactivity was determined by the production of IL-5 or IFNg from cultured PBMCs of the allergic donors in response to stimulation with a peptide and IL-5 and IFNg were measured by ELISPOT as described in Oseroff C et al, 2010.
In short, T cell immune reactivity was determined using PBMCs isolated from study participants and stored in liquid nitrogen until further use. For experimental testing, PBMCs were thawed and expanded in vitro with TG pollen extract (50 μg/mL) or the peptide pool ([…]). The TG extract and peptide pools had each been previously titrated to determine optimal stimulation concentrations.
Cytokine production by cultured PBMCs in response to antigen stimulation was measured by ELISPOT. Cells (1×10^5 cells/well) were plated and incubated with peptide (10 μg/mL), the peptide pool (5 μg/mL), or the TG extract (50 μg/mL). Phytohaemagglutinin (10 μg/mL) and medium alone were used as positive and negative controls, respectively. Samples were considered to produce a cytokine if 100 spot-forming cells (SFCs)/10^6 PBMCs were detected, with P .05 and a stimulation index of 2 or more. Criteria for individual peptides were the same except that a minimum of 20 SFCs were required for a sample to be counted as positive.
Table 3 lists the 397 PG+ peptides and indicates for each non-grass pollen species whether a matching peptide with either less than 3, less than 2 or zero mismatches could be detected. The immune reactivity of the TG peptide was assessed as the number of TG grass allergic donors (n=20) having in vitro T cell response against the TG peptide.

Here are results for three molecules from patent US20160287696A1, “PAN POLLEN IMMUNOGENS AND METHODS AND USES FOR IMMUNE RESPONSE MODULATION” (LA JOLLA INSTITUTE FOR ALLERGY AND IMMUNOLOGY, priority 2013, published 2016).

B1: NTGA 53: Phl p wild type sequence, Table 2 (protein)
chain: MDRNPVAKNAGKFMTLAGVLDYAKASNISGILIGIEHAAYLATRGLDVVDAVSNALIKSGYDKETKQQVFIQSEDPPVLSAFKKFPKFNRVFEIEFDIRDVSKPSVVEIKEFANAVKLRRSSAAQVDGFYLTGFNAVVERLRDADIQVHVGVLKNEFMSLAFDYWADPMVEIATDTWSVLADGLVTEFPSTAAAYFRSPCSDIKRNMSYTIKPGEPGALVDMAAYGALPPAPPPAPVLEPADVHRQPLPLCPTEPMFRTFRCRLPPKETGKNAEYTANLAADG
modifications: Phleum Pratense
With B1, the “NTGA's containing at least one T cell epitope, Th+ (Col 2)” value (“NTGA's containing” for short) worked out at 53; the “No of PG+ & th+ peptides per NTGA” value stood at 3; the “No of PP & Th+ peptides per NTGA” value was 1; the “# Th+” value is 3. The “T cell reactivity of sequences contained in the protein” value (among top pan-pollen NTGA's ranked by number of PP peptides) was “highly T cell reactive sequences”.

B2: NTGA 27: Phl p wild type sequence, Table 2 (protein)
chain: MSAYCGKYKDELIKNAAYIGTPGKGILAADESTGTIGKRFASINVENVEDNRRALRELLFTTPGALQHISGVILFEETLYQSSKAGKPFVDILKENNVLPGIKVDKGTVELAGTDKETTTQGHDDLGKRCAKYYEAGARFAKWRAVLKIGPNEPSQLSIDQNAQGLARYAIICQENGLVPIVEPEILVDGPHDIERCAYVTEVVLAACYKALNDQHVLLEGSLLKPNMVTPGSDAKKVAPEVIAEYTVRTLQRTVPPAVPAIVFLSGGQSEEEATVNLNAMNKLQTKKPWFLSFSFGRALQQSTLKAWSGKEENVEKAQKAFLVRCKANSEATLGTYKGDATLGEGASESLHVKDYKY
modifications: Phleum Pratense
Consider B2, for which the “immune reactivity (SFC counts in ELISPOT) of highly conserved PG+ peptides derived from the NTGA” value is listed as “high immune reactivity”; the “NTGA's containing” value was 27; the “No of PG+ & th+ peptides per NTGA” value came to 5; the “No of PP & Th+ peptides per NTGA” value came out at 4. Besides, the “# Th+” value is recorded as 0.

B3: NTGA 89: Phl p wild type sequence, Table 2 (protein)
chain: MSAADKVKPAASPAAEDPAAIAGNISYHAHYSPHFSPLAFGPEPAYFATAESVRDHLLQRWNDTYLHFHKTDPKQTYYLSMEYLQGRALTNAVGNLGITGAYAEAVKKFGYELEALAGQERDMALGNGGLGRLAACFLDSMATLNLPAWGYGLRYRYGLFKQRIAKEGQEEIAEDWLEKFSPWEIVRHDVVYPVRFFGHVEILPDGRRKSAGGEVLNALAYDVPIPGYKTKNAISLRLWDAKASAEDFNLFQFNDGQYESAAQLHSRAQQICAVLYPGDATEEGKLLRLKQQFFLCSASLQDIIFRFKERKSDRVSGKWSEFPSKVAVQMNDTHPTLAIPELMRLLMDEEGLGWDEAWDVTNKTVAYTNHTVLPEALEKWSQSVMRKLLPRQMEIIEEIDKRFREMVISTRKDMEGKLDSMSVLDNSPQKPVVRMANLCVVSAHTVNGVAELHSNILKEELFADYVSIWPKKFQNKTNGITPRRWLRFCNPELSEIVTKWLKTDQWTSNLDLLTGLRKFADDEKLHAEWAAAKLASKKRLAKHVLDATGVTIDPTSLFDIQIKRIHEYKRQLMNILGAVYRYKKLKEMSAEEKQKVTPRTVMVGGKAFATYTNAKRIVKLVNDVGAVVNNDPDVNKYLKVVFIPNYNVSVAEVLIPGSELSQHISTAGMEASGTSNMKFSLNGCVIIGTLDGANVEIREEVGEDNFFLFGAKADQVAGLRKDRENGLFKPDPRFEEAKQYIRSGTFGTYDYTPLLDSLEGNSGFGRGDYFLVGYDFPSYIDAQARVDEAYKDKKRWIKMSILNTAGSGKFSSDRTIDQYAKEIWGITANPVP
modifications: Phleum Pratense
With B3, the “NTGA's containing” value was found to be 89; the “No of PG+ & th+ peptides per NTGA” value came out at 13; the “No of PP & Th+ peptides per NTGA” value is 0; the “# Th+” value turned out to be 4. Moreover, the “PG+ peptides recognized by grass allergic donors” value (n=20 grass allergic donors, PG+ peptides of the NTGA) is on record as “two”.
